# Experimental data as given in IntAct's records for PubMed 35512704.
# B1: Speckle-type POZ protein (Homo sapiens), O43791 (parent)
# chain: MSRVPSPPPPAEMSSGPVAESWCYTQIKVVKFSYMWTINNFSFCREEMGEVIKSSTFSSGANDKLKWCLRVNPKGLDEESKDYLSLYLLLVSCPKSEVRAKFKFSILNAKGEETKAMESQRAYRFVQGKDWGFKKFIRRDFLLDEANGLLPDDKLTLFCEVSVVQDSVNISGQNTMNMVKVPECRLADELGGLWENSRFTDCCLCVAGQEFQAHKAILAARSPVFSAMFEHEMEESKKNRVEINDVEPEVFKEMMCFIYTGKAPNLDKMADDLLAAADKYALERLKVMCEDALCSNLSVENAAEILILADLHSADQLKTQAVDFINYHASDVLETSGWKSMVVSHPHLVAEAYRSLASAQCPFLGPPRKRLKQS
# partner: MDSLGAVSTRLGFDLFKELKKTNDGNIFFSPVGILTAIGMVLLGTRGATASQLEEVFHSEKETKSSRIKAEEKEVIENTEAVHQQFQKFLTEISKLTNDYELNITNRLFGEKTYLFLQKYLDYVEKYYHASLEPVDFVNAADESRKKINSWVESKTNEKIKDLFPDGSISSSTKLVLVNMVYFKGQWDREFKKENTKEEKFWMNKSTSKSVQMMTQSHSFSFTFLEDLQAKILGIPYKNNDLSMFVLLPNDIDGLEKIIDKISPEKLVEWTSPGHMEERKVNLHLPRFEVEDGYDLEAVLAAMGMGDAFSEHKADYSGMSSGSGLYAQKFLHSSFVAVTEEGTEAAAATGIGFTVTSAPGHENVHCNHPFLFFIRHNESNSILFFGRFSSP
# B2: Speckle-type POZ protein (Homo sapiens), O43791 (parent)
# chain: B1 chain
# partner: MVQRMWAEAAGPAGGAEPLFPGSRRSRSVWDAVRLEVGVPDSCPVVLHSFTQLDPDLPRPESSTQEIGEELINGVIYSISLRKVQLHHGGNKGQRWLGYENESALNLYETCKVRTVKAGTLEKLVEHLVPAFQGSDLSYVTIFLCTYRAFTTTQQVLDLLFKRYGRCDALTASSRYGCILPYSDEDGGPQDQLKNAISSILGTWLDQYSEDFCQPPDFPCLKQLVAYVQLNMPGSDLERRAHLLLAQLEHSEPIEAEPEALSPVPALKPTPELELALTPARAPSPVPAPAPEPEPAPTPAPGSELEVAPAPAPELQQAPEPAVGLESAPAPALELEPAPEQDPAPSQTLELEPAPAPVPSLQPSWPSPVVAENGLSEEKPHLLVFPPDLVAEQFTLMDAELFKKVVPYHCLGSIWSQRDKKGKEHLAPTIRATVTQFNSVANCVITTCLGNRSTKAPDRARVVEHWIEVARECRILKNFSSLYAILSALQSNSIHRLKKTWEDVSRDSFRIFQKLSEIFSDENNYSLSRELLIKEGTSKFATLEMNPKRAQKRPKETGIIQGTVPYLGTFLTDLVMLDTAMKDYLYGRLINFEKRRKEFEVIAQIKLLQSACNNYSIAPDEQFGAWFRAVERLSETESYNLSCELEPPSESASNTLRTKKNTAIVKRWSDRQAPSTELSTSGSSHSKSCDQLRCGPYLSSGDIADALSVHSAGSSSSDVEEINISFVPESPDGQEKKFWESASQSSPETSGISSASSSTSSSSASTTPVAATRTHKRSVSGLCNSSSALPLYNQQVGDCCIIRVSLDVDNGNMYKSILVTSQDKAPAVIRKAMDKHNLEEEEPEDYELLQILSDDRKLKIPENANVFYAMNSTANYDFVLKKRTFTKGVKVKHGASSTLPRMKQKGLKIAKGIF
# B3: Speckle-type POZ protein (Homo sapiens), O43791 (parent)
# chain: B1 chain
# partner: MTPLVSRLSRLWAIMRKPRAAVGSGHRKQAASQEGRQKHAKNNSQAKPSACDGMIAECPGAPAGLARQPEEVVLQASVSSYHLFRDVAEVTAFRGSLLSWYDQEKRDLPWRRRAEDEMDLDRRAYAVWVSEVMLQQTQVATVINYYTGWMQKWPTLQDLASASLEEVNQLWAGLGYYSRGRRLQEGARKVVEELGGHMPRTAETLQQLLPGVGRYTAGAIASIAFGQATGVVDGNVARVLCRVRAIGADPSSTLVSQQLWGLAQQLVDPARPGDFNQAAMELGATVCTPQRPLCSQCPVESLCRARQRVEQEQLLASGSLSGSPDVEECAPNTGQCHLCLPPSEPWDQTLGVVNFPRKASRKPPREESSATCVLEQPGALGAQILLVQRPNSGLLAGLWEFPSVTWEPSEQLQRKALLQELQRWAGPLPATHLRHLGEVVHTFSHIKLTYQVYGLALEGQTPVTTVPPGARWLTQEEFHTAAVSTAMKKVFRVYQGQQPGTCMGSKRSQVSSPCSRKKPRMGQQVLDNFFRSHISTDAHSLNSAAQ
# B4: Speckle-type POZ protein (Homo sapiens), O43791 (parent)
# chain: B1 chain
# partner: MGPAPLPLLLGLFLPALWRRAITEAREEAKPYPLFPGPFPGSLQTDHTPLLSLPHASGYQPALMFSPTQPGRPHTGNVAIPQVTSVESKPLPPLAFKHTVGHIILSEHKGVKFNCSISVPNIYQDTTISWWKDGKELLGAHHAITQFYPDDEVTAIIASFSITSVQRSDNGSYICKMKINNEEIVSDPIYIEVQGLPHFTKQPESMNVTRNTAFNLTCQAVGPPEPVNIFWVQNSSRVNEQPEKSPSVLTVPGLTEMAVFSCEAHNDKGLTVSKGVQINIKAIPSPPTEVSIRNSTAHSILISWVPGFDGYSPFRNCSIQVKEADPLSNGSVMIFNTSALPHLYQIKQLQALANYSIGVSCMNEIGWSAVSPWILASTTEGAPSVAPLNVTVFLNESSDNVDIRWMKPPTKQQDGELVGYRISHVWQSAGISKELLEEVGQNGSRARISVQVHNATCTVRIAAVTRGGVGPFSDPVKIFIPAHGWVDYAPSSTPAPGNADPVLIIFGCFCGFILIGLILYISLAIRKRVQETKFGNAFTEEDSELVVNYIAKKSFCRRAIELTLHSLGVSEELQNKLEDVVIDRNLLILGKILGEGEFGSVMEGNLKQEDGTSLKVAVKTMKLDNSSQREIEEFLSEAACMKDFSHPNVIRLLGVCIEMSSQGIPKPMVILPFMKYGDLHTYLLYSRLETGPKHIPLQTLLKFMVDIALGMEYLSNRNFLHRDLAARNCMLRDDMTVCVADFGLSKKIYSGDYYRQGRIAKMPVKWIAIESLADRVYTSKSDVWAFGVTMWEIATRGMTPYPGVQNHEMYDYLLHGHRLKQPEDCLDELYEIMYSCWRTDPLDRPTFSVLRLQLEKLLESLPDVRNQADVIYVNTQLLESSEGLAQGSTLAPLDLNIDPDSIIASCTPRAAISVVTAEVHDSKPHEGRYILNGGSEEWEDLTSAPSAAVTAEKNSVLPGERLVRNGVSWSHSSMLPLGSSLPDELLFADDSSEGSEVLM
# B5: Speckle-type POZ protein (Homo sapiens), O43791 (parent)
# chain: B1 chain
# partner: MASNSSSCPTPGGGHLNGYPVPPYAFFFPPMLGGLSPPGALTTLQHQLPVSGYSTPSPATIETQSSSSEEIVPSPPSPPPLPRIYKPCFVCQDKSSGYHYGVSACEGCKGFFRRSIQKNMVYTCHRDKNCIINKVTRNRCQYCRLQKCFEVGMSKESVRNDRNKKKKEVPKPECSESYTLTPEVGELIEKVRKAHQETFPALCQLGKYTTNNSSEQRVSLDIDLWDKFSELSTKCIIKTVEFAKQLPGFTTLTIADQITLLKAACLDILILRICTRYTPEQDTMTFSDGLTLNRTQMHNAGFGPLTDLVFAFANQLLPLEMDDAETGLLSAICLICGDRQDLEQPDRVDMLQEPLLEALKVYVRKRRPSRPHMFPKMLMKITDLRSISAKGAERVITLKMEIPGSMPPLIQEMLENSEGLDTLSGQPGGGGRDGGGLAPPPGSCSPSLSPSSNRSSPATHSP
# B6: Speckle-type POZ protein (Homo sapiens), O43791 (parent)
# chain: B1 chain
# partner: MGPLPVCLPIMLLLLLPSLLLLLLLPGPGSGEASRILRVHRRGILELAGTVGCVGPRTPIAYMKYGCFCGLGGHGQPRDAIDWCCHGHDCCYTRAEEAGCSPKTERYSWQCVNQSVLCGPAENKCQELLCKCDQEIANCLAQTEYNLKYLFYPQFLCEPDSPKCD
# B7: Speckle-type POZ protein (Homo sapiens), O43791 (parent)
# chain: B1 chain
# partner: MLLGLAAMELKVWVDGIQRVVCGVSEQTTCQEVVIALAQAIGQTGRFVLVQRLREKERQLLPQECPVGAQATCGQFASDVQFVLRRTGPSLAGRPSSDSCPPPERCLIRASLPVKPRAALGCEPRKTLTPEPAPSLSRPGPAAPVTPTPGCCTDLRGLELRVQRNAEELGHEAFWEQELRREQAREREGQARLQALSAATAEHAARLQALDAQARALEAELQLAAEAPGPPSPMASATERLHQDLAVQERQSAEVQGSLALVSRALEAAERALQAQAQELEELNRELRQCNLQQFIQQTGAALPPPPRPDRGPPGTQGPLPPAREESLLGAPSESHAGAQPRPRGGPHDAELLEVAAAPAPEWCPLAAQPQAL
# Variants of: B1
# Settings: with spb13_human SERPINB13, Q9UIV8
row,Variant,effect of a mutation on the interaction
1,F102C,with no effect

# Variants of: B2
# Settings: with gnds_human RALGDS
row,Variant,effect of a mutation on the interaction
1,F102C,with no effect

# Variants of: B2
# Settings: with gnds_human RALGDS
# Remark: another data set of the same source
row,Variant,effect of a mutation on the interaction
1,F133L,with no effect

# Variants of: B2
# Settings: with gnds_human RALGDS
# Remark: another data set of the same source
row,Variant,effect of a mutation on the interaction
1,F133V,with no effect

# Variants of: B2
# Settings: with gnds_human RALGDS
# Remark: another data set of the same source
row,Variant,effect of a mutation on the interaction
1,Y87C,with no effect

# Variants of: B3
# Settings: with mutyh_human MUTYH
row,Variant,effect of a mutation on the interaction
1,Y87C,with no effect

# Variants of: B3
# Settings: with mutyh_human MUTYH
# Remark: another data set of the same source
row,Variant,effect of a mutation on the interaction
1,F102C,with no effect

# Variants of: B3
# Settings: with mutyh_human MUTYH
# Remark: another data set of the same source
row,Variant,effect of a mutation on the interaction
1,F133V,with no effect

# Variants of: B3
# Settings: with mutyh_human MUTYH
# Remark: another data set of the same source
row,Variant,effect of a mutation on the interaction
1,F133L,with no effect

# Variants of: B4
# Settings: with mertk_human MERTK
row,Variant,effect of a mutation on the interaction
1,F102C,with no effect

# Variants of: B4
# Settings: with mertk_human MERTK
# Remark: another data set of the same source
row,Variant,effect of a mutation on the interaction
1,Y87C,with no effect

# Variants of: B4
# Settings: with mertk_human MERTK
# Remark: another data set of the same source
row,Variant,effect of a mutation on the interaction
1,F133V,with no effect

# Variants of: B4
# Settings: with mertk_human MERTK
# Remark: another data set of the same source
row,Variant,effect of a mutation on the interaction
1,F133L,with no effect

# Variants of: B5
# Settings: with rara_human RARA
row,Variant,effect of a mutation on the interaction
1,F133L,with no effect

# Variants of: B5
# Settings: with rara_human RARA
# Remark: another data set of the same source
row,Variant,effect of a mutation on the interaction
1,F133V,with no effect

# Variants of: B5
# Settings: with rara_human RARA
# Remark: another data set of the same source
row,Variant,effect of a mutation on the interaction
1,F102C,with no effect

# Variants of: B5
# Settings: with rara_human RARA
# Remark: another data set of the same source
row,Variant,effect of a mutation on the interaction
1,Y87C,with no effect

# Variants of: B6
# Settings: with pa2gx_human PLA2G10, O15496
row,Variant,effect of a mutation on the interaction
1,Y87C,with no effect

# Variants of: B6
# Settings: with pa2gx_human PLA2G10, O15496
# Remark: another data set of the same source
row,Variant,effect of a mutation on the interaction
1,F133V,with no effect

# Variants of: B6
# Settings: with pa2gx_human PLA2G10, O15496
# Remark: another data set of the same source
row,Variant,effect of a mutation on the interaction
1,F133L,with no effect

# Variants of: B6
# Settings: with pa2gx_human PLA2G10, O15496
# Remark: another data set of the same source
row,Variant,effect of a mutation on the interaction
1,F102C,with no effect

# Variants of: B7
# Settings: with rasf7_human RASSF7, Q02833
row,Variant,effect of a mutation on the interaction
1,Y87C,with no effect

# Variants of: B7
# Settings: with rasf7_human RASSF7, Q02833
# Remark: another data set of the same source
row,Variant,effect of a mutation on the interaction
1,F133L,with no effect
